{"source": "patent US7345022B2", "about": "“Anti-fibril peptides” (Board of Supervisors of Louisiana State University and …, priority 2002, dated 2008)", "key": {"[1]": {"assay": "Self-aggregation of the peptide", "assay_type": "physicochemical", "method": "Other strategies have included combinatorial approaches to screen short pentapeptides with L- or D-amino acids to develop small, mostly hydrophobic, inhibitors of Aβ1-40 fibril formation. […] Thus, these peptides can themselves become part of high order aggregates.\n(§1) wherein Dibg is C^α,α-diisobutylglycine; Dbzg is C^α,α-dibenzylglycine; and Dpg is C^α,α-dipropylglycine. The AMY-1 peptide inhibits aggregation at concentrations of ˜5 μM when incubated with the amyloidogenic peptide Aβ10-35 in phosphate buffer at 37° C., under conditions where the Aβ10-35 peptide alone would form amyloid fibrils. […] AMY-1 is also depicted in FIG. 3. FIG. 4 depicts the manner in which AMY-1 blocks further extension of a growing β-sheet formed from the Aβ peptide.\n(3) AMY-2 self-aggregates at 50 μM."}, "Aβ1-40": {"biological_target": "Aβ1-40 (Homo sapiens, UniProt P05067)", "sequence (P05067 672-711 limits assumed)": "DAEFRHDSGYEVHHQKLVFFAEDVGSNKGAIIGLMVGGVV", "assay": "Interaction with Aβ1-40: aggregate and fibril formation (visual, scanning probe microscopy)", "assay_type": "biochemical", "settings": "for product of the interaction with Aβ1-40: preliminary studies", "method": "(3) AMY-2 self-aggregates at 50 μM. The interaction of β-Amyloid and AMY-2 is apparent visually. […] SPM images were taken of adsorbed peptide material on a hydrophilic surface (mica or muscovite). […] These non-fibrillar aggregates were ˜100 nm in height and appeared as clusters of aggregated peptide material. […] Another study to explore the later β-Amyloid aggregation (i.e., fibril formation) produced an image of elongated fibrils greater than 10 μm long and 8 nm high."}, "PC-12 cells": {"tested_on": "PC-12 cells", "settings": "MTT, reported by Pallitto et al.; cited from earlier work"}, "[2]": {"settings": "prior pentapeptide inhibitors of Aβ1-40 fibril formation; cited from earlier work"}, "Aβ10-35": {"biological_target": "T1, Aβ10-35 (Homo sapiens, UniProt P05067)", "T1 construct": "incubated with the amyloidogenic peptide Aβ10-35 in phosphate buffer at 37° C", "T1 sequence (P05067 681-706)": "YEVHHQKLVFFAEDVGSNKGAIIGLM", "assay": "Inhibition of Aβ10-35 aggregation on incubation in phosphate buffer", "assay_type": "biochemical", "settings": "incubated with Aβ10-35 in phosphate buffer at 37° C.", "method": "as §1"}, "[3]": {"tested_on": "preformed β-amyloid fibrils", "assay": "Dissolution of preformed fibrils (SPM and TEM)", "assay_type": "biochemical", "settings": "preliminary", "method": "Preliminary experiments have confirmed that the novel peptides can promote the dissolution of existing fibrils. The ability of the peptide AMY-1 to dissolve preformed fibrils was assessed with both scanning probe microscopy (SPM) and transmission electron microscopy (TEM). […] A twisting appeared in the middle of the length of the fibril, as if the AMY-1 peptide was interpolating into it."}, "[4]": {"settings": "adsorbed on hydrophilic surface (mica or muscovite), β-Amyloid1-40"}}, "note": "*1 amine or outer side, *2 acyl side, *3 side chain or, on linkers, in order; H or OH if unused. Where no end group is shown, it is not given here. [ ]: non-standard residue; d: D form. Dbzg = C-alpha,alpha-dibenzylglycine, O=C(C(Cc1ccccc1)(Cc1ccccc1)N[*:1])[*:2]; Dibg = C-alpha,alpha-diisobutylglycine, CC(C)CC(CC(C)C)(N[*:1])C(=O)[*:2]; Dpg = CCCC(N)(CCC)C(=O)O", "data": [{"substance": "(Lys)7-Dibg-Val-Dbzg-Phe-Dpg-NH2 (KKKKKKK[Dibg]V[Dbzg]F[Dpg]-NH2; N-terminus assumed; SMILES CCCC(CCC)(NC(=O)[C@H](Cc1ccccc1)NC(=O)C(Cc1ccccc1)(Cc1ccccc1)NC(=O)[C@@H](NC(=O)C(CC(C)C)(CC(C)C)NC(=O)[C@H](CCCCN)NC(=O)[C@H](CCCCN)NC(=O)[C@H](CCCCN)NC(=O)[C@H](CCCCN)NC(=O)[C@H](CCCCN)NC(=O)[C@H](CCCCN)NC(=O)[C@@H](N)CCCCN)C(C)C)C(N)=O) [AMY-2]", "values": [{"measurement": "concentration at which the peptide self-aggregates", "setting": "[1]; preliminary studies, data not shown", "result": 50, "unit": "µM"}, {"measurement": "fibril formation (later aggregation study, image)", "setting": "Aβ1-40; 1:1 ratio of 50 μM β-Amyloid and peptide", "result": "no fibril formation"}, {"measurement": "visual appearance of the solution", "setting": "Aβ1-40; added to β-amyloid at 1:1 ratio, 50 μM each, room temperature", "result": "the solution rapidly turned opaque"}, {"measurement": "height of the non-fibrillar aggregates (SPM)", "setting": "Aβ1-40; [4]", "result": "~100", "unit": "nm"}, {"measurement": "morphology of the interaction product (SPM images)", "setting": "Aβ1-40; [4]", "result": "large, amorphous aggregates"}, {"measurement": "product of the interaction with Aβ1-40", "setting": "Aβ1-40; data not shown", "result": "large, non-fibril aggregate"}]}, {"substance": "KLVF (listed as Homo sapiens)", "values": [{"measurement": "protective effect against Aβ toxicity", "setting": "PC-12 cells", "result": "protective effect against Aβ toxicity"}]}, {"substance": "KLVFF", "values": [{"measurement": "self-aggregation (literature)", "setting": "[2]", "result": "aggregate and form insoluble precipitates"}, {"measurement": "protective effect against Aβ toxicity", "setting": "PC-12 cells", "result": "protective effect against Aβ toxicity"}]}, {"substance": "Lys-Dibg-Val-Dbzg-Phe-Dpg-(Lys)6-NH2 [AMY-1]", "values": [{"measurement": "concentration at which the peptide inhibits aggregation", "setting": "Aβ10-35", "result": "~5", "unit": "µM"}, {"measurement": "self-aggregation", "setting": "[1]", "result": "does not aggregate with itself"}, {"measurement": "fibril formation after long incubation with Aβ1-40", "setting": "Aβ1-40; 4.5 month-incubation, preliminary, data not shown", "result": "no massive fibrils were formed"}, {"measurement": "product of the interaction with Aβ1-40", "setting": "Aβ1-40; data not shown", "result": "small, non-fibril aggregate"}, {"measurement": "effect on preformed fibrils, SPM image", "setting": "[3]; SPM at 10×10 μm^2, on mica", "result": "less adsorbed Aβ protein on mica"}, {"measurement": "effect on preformed fibrils, TEM", "setting": "[3]; preformed β-amyloid, TEM", "result": "the fibrillar structures were substantially frayed"}]}]}
